Laboratory results published in the supplement of paper PMC10126150.
± gives the standard deviation of the averaged measurements.

test system: ATP; test: switch fluorescence ratio, 500 uM ATP over buffer (Cy3 cluster intensity, sum of 5 cycles each) (fold (ratio)); higher = stronger signal-on switching upon ATP binding; sequences stand for … in TCGTCGGCAGCGTCAGATGTGTATAAGAGACAGTTTTTTTTTTTTTTTTTTTTTTTTT…TC; conditions: aptamer strand: ATP DNA aptamer (quencher-CACCTGGGGGAGTATTGCGGAGGAAGG + anchor), 100 nM annealed; ATP concentration: 500 uM
Outline: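 Switching-strand clusters labelled with Cy3 on a modified Illumina MiSeq flow-cell were annealed to 100 nM quencher-labelled ATP aptamer, imaged in selection buffer, and re-imaged after 15 min with 500 uM ATP at 22 °C. This was done over five cycles with NaOH stripping and re-annealing in between. The fluorescence ratio is summed target-cycle over summed buffer-cycle Cy3 intensity per cluster, averaged per switch-domain sequence, excluding clusters outside 100-1000 RFU.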
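Note: ATP exposure 15 min at 22 °C before imaging.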

Sequence | switch fluorescence ratio
GGGCGTTGGG | 0.948 ± 0.059
GCTAGGGGGG | 1 ± 0.04
AGGCGGATGT | 0.978 ± 0.016
AGCCGGGTGT | 1.34 ± 0.47
TTATAAG | 1.003 ± 0.0067
CGATGAGTAA | 1 ± 0.029
ATCGGAGTAT | 0.996 ± 0.034
TGTCCGAGCA | 1.75 ± 0.058
TATGGGGGGT | 0.976 ± 0.017
CAGGCCGTAT | 1.01 ± 0.016
AATCATGCGA | 0.9964 ± 0.0078
GGAGGAACAT | 1.02 ± 0.016
TGTCGGTGTT | 0.971 ± 0.029
AAGGGGTTT | 1.03 ± 0.065
TAGGGTTGGC | 0.969 ± 0.013
TATGAGGGCT | 1.04 ± 0.012
GCCCAAGAGT | 1.04 ± 0.02
GGGGGGAAAC | 1 ± 0.022
TGATCATATG | 0.982 ± 0.068
GCATCAATGG | 1.06 ± 0.014
TGGTGGCGTT | 1.026 ± 0.0082
TGCGGCGCTT | 1.97 ± 1.3
ATTAATGTGT | 0.9987 ± 0.0011
GTGCGGCCAA | 1.02 ± 0.044
TGTTTTCGCT | 0.9969 ± 0.0097

Sequence | switch fluorescence ratio
TTAGTTGAGT | 1.02 ± 0.028
TTGATGGATG | 1.04 ± 0.09
GTGGAGTTTG | 0.999 ± 0.012
TTGTTCAAAA | 1.03 ± 0.025
GCCGGGTATG | 1.02 ± 0.022
AACCTCGTCT | 1.07 ± 0.039
TATTCGGGGG | 1.04 ± 0.078
CTGGCAGGGC | 1.07 ± 0.016
ATTAAGTCGT | 0.982 ± 0.033
ACACTAGGTG | 1.42 ± 0.023
CGACTAGGTA | 1 ± 0.062
TTGCACGTAT | 1.08 ± 0.056
ACGGCTGCGT | 1.05 ± 0.029
CAAAAGGGGA | 0.984 ± 0.04
AAGTTGGAGG | 0.9797 ± 0.0024
TATATTTGTA | 0.979 ± 0.024
CCTAAATACC | 1.29 ± 0.25
ATCGGGGTAG | 0.9985 ± 0.0038
TCTTTGATTA | 1.01 ± 0.042
GATTTTTAGG | 0.964 ± 0.015
TGACATCATT | 1.063 ± 0.002
AGGGGAATGG | 0.997 ± 0.015
GGGAAGTCAA | 1.02 ± 0.032
GATCTAGTTA | 0.996 ± 0.054
GCTGTAGGTC | 1.04 ± 0.013

Sequence | switch fluorescence ratio
ATTCAAGTT | 0.999 ± 0.034
TGAGTAGCGT | 0.9631 ± 0.0063
GCGATGCTGC | 1.24 ± 0.08
TGGGGGCGCC | 0.982 ± 0.041
CCGATTGTGT | 1.11 ± 0.017
TATTTATAAA | 0.998 ± 0.025
TTTTTGCGAA | 1.033 ± 0.0011
TTGACCGGAA | 1.14 ± 0.038
TCACTGGTCT | 0.9849 ± 0.0037
TTTGTGTGGG | 1.03 ± 0.03
ATGAATCTCG | 0.9898 ± 0.0075
TTTTGAAGAT | 1.009 ± 0.01
TGAGACAAGC | 1.05 ± 0.012
TTATCTAATC | 0.972 ± 0.008
TCGTATCGTA | 0.975 ± 0.013
AGTTGGGTCA | 0.993 ± 0.044
TAGATTCTGA | 1.01 ± 0.032
GCGGCTGGGG | 1.01 ± 0.057
GGGAGAGCA | 0.9821 ± 0.0098
AAATGTTTGT | 1.006 ± 0.0099
TAAGTCATTG | 0.985 ± 0.049
TGAAGGGGTA | 1.01 ± 0.059
TCAGAGGTAT | 1.02 ± 0.014
CATGGGGTTT | 1.01 ± 0.018
AACCTCATGC | 1.17 ± 0.086

Sequence | switch fluorescence ratio
GCGGCCTTGT | 1.04 ± 0.011
GGGGCGGCAG | 0.998 ± 0.013
GAATGTGGGT | 0.994 ± 0.013
TAAGGAGTTC | 0.965 ± 0.021
AGGTTTTTGG | 0.963 ± 0.012
TGTTACGGTG | 1.002 ± 0.0031
TTTTTGATGA | 1.02 ± 0.015
TGATGAAATG | 1.01 ± 0.049
TCGTGAACGT | 0.978 ± 0.011
AAGGTGTTCG | 0.957 ± 0.016
TTCTGCTCGC | 1.08 ± 0.058
TCGGTCCAGG | 1.39 ± 0.14
AGAGGTCTTG | 0.979 ± 0.029
GGTAGTAGTA | 1 ± 0.034
AAGTATGCTT | 1.01 ± 0.021
TTGGTAATCC | 1.011 ± 0.0026
CGAAATCGTG | 0.9964 ± 0.0047
TCAGACGTTT | 1.011 ± 0.009
TTGTGTCGGG | 0.998 ± 0.02
GCATTTTCTG | 1.02 ± 0.026
CGAGGGGATA | 1.04 ± 0.051
GGGATGGTTA | 0.971 ± 0.056
TATTGGTCGT | 0.968 ± 0.042
TTATCATGGG | 0.993 ± 0.047
CTTTGGGTGG | 1.03 ± 0.058
